In patent US20230025732A1 (INNATE PHARMA, published 2023):

Legend:
[1] = target: T1, human CD39 expressed at the cell surface (human, UniProt P49961 1-510); assay: cell-based or functional assay
T1 sequence: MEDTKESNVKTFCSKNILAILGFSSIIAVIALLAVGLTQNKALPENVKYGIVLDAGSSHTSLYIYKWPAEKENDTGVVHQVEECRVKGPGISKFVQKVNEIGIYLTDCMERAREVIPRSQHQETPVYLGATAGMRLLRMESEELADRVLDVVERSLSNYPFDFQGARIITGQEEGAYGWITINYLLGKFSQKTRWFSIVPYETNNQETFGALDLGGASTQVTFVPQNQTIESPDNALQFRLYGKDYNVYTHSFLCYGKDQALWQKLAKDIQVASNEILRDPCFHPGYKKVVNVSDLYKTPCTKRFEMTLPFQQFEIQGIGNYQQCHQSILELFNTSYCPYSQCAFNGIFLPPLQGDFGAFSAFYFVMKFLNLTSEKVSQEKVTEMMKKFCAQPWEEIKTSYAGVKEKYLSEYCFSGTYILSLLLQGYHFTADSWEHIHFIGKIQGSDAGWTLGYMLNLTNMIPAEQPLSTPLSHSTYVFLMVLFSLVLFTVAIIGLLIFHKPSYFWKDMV

[2] = target: T2, CD39-M2 extracellular domain recombinant protein (soluble recombinant human CD39 with M2 tag) (human, UniProt P49961 38-478, limits assumed); assay: cell-based or functional assay
T2 sequence: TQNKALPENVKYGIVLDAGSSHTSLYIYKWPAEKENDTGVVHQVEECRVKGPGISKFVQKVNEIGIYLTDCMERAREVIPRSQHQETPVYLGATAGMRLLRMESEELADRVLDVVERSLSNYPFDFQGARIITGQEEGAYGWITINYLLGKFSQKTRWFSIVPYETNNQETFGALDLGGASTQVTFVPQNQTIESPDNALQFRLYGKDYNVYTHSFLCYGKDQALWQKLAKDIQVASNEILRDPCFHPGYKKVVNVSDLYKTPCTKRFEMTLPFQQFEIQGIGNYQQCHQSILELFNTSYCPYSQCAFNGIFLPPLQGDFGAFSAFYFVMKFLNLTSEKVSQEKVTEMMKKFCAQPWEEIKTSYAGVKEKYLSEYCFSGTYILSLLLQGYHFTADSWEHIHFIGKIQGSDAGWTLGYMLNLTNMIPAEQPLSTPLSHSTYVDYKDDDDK

[3] = target: T1, human CD39 expressed at the cell surface; assay: flow cytometry, Ramos lymphoma cells, first set of experiments; Ramos cells, first set of experiments
Protocol: (§1) Cells were incubated with various concentration of unlabeled anti-CD39 antibody from 30 μg/ml to 5×10⁻⁴ μg/ml, for 30 minutes at 4° C. After washes, cells were incubated with Goat anti-mouse H+L labeled secondary antibody for 30 min at 4° C.

[4] = target: T1, human CD39 expressed at the cell surface; assay: flow cytometry, Ramos lymphoma cells, second set of experiments; Ramos cells, second set of experiments
Protocol: as §1

[5] = target: T1, human CD39 expressed at the cell surface; assay: flow cytometry titration on CHO cells expressing human CD39 (Mediane of Fluo), panel CHO-huCD39
Protocol: as §1

murine CD39 on CHO cells = target: T3, murine CD39 on CHO cells (murine, UniProt P55772 1-510); assay: flow cytometry titration on CHO cells expressing murine CD39 (Mediane of Fluo), panel CHO-moCD39
T3 construct: whole, on cells; also called CHO-moCD39; moCD39
T3 sequence (looked up): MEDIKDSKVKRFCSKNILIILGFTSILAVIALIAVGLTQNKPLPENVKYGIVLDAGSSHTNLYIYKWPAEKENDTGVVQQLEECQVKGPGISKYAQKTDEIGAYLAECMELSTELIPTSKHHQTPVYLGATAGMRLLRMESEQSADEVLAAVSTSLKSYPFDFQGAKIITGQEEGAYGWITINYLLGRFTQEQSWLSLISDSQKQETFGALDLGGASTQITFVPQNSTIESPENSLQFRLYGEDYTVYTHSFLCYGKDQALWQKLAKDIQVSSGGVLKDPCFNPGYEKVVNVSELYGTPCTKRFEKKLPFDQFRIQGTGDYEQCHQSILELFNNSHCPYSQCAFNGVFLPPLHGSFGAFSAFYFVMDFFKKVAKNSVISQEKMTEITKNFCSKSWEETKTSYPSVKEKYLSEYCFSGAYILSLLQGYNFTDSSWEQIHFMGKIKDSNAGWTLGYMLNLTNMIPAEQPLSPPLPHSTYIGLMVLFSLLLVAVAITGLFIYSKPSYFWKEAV
Protocol: as §1

[6] = target: T4, Human CD39-L3, also known as NTPDase3 or ENTPD3 (human, UniProt O75355 44-485, limits assumed); assay: ELISA on coated recombinant human CD39-L3, panel huCD39 L3; no legend on the sheet, curve is I-394 by paragraph 85
T4 construct: Recombinant protein coated in ELISA
T4 sequence: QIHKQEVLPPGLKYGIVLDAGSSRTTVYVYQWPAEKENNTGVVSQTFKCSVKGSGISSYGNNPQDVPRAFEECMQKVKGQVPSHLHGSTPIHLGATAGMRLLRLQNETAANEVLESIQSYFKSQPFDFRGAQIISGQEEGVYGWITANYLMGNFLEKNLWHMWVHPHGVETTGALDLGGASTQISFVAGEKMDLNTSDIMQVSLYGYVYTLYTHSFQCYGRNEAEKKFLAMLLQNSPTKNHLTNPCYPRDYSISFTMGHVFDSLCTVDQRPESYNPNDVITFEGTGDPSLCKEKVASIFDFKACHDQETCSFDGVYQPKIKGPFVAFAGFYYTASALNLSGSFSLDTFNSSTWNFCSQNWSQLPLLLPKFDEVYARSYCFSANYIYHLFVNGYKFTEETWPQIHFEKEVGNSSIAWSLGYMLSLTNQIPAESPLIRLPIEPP
Protocol: Wells were washed in TBS Tween 20, and further saturated 2H at RT in TBS Blocking buffer. Dose range concentration of primary antibody was incubated in TBS blocking buffer for 2 h at RT. Wells were washed in TBS Tween 20. […] Optical density was measured on Enspire™ at OD=450.

IC50, inhibition of CD39 ATPase activity in Ramos cells [1]: 0.05 µg/mL
IC50, inhibition of ATPase activity of soluble CD39 [2]: 0.003 µg/mL
EC50 [3]: 0.16 µg/mL
EC50 [4]: 0.19 µg/mL
EC50 (read off the curve) [5]: ~0.2 µg/mL
binding result (murine CD39 on CHO cells): no binding (tested: about 30 µg/ml)
binding result [6]: no binding (tested: about 50 µg/ml)
B1: I-394 (antibody, human IgG1, V domains shown)
VH: EVQLQQSGPELVKPGASVKMSCKASGYTFTDYNMHWVKQSHGRTLEWIGYIVPLNGGSTFNQKFKGRATLTVNTSSRTAYMELRSLTSEDSAAYYCARGGTRFAYWGQGTLVTVSA
VL: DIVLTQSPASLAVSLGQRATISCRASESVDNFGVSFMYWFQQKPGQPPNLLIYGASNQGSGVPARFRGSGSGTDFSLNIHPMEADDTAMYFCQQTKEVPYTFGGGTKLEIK
